Ends that are not written are not given here.
T1: GST-β5cyto (GST fusion protein of the β5 integrin cytoplasmic domain) (UniProt P18084 743-799)
T1 construct: domain: cytoplasmic domain; Recombinant GST fusion coated on microtiter wells; also called β5-GST; β5 cytoplasmic domain fusion protein; not shown: glutathione S-transferase (GST) fusion partner
T1 sequence (looked up): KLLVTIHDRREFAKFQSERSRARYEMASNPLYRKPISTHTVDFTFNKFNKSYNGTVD

B1: phage displaying CSGLCTVQCLEGC (SEQ ID NO:130) (peptide)
peptide: CSGLCTVQCLEGC
notes: one of the other phage selected in round 2
B2: phage displaying CAVACWADCQLGC (SEQ ID NO:129) (peptide)
peptide: CAVACWADCQLGC
notes: as for B1

Biological target: T1, GST-β5cyto (GST fusion protein of the …)
Test: phage binding, colonies from β5-GST wells / GST wells
From the text: (§1) β3 and β5 cytoplasmic domain-binding peptides were isolated by screening multiple phage libraries with recombinant GST fusion proteins that contained either GST-β3cyto or GST-β5cyto coated onto microtiter wells. Immobilized GST was used as a negative control for enrichment during the panning of each cytoplasmic domain. Phage were sequenced from randomly selected clones after three rounds of panning as disclosed elsewhere (Koivunen et al., 1995; Pasqualini et al., 1995). […] Randomly selected clones from panning rounds II and III were sequenced. Amino acid sequences of the phagemid encoded peptides were deduced from nucleotide sequences. The ratios were calculated by dividing the number of colonies recovered from β3-GST-coated wells and those recovered from GST or BSA.

Going from SDWYYPWSW (whole phage tested; Selected on β5) [phage displaying SDWYYPWSW (SEQ ID NO:113)] to DEEGYYMMR (whole phage tested) [phage displaying DEEGYYMMR (SEQ ID NO:110)], the “β5/GST Ratio” value rises from 2.4 ratio to 11.5 ratio.

Compared with CWDQNYLDDC (whole phage tested) [phage displaying CWDQNYLDDC (SEQ ID NO:109)], CKEDGWLMTC (whole phage tested) [phage displaying CKEDGWLMTC (SEQ ID NO:107)] is higher in “β5/GST Ratio” value: 1.5 ratio for the first, 2.3 ratio for the second.

Compared with KQFSYRYLL (whole phage tested) [phage displaying KQFSYRYLL (SEQ ID NO:111)], VVISYSMPD (whole phage tested) [phage displaying VVISYSMPD (SEQ ID NO:112)] is lower in “β5/GST Ratio” value: 4.5 ratio for the first, 3.8 ratio for the second.

First: CYIWPDSGLC (cysteine pairing not given here; also: displayed on phage, whole phage tested) [phage displaying CYIWPDSGLC (SEQ ID NO:105)]
Second: CEPYWDGWFC (cysteine pairing not given here; also: displayed on phage, whole phage tested) [phage displaying CEPYWDGWFC (SEQ ID NO:106)]
The “β5/GST Ratio” value of the first is higher: 5.2 ratio for the first, 3.1 ratio for the second.

Biological target: T2, GST-β3cyto (GST fusion protein of the β3 integrin cytoplasmic domain) (UniProt P05106 742-788)
T2 construct: domain: cytoplasmic domain; Recombinant GST fusion coated on microtiter wells; also called β3-GST; β3 cytoplasmic domain fusion protein; not shown: glutathione S-transferase (GST) fusion partner
T2 sequence (P05106 742-788): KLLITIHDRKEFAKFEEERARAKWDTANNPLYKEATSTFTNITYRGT
Test: phage binding, colonies from β3-GST wells / BSA wells
From the text: as §1

Going from CNLSSEQC (cysteine pairing not given here; also: displayed on phage, whole phage tested) [phage displaying CNLSSEQC (SEQ ID NO:103)] to KVSWYLDNG (whole phage tested) [phage displaying KVSWYLDNG (SEQ ID NO:99)], the “β3/BSA Ratio” value falls from 62 ratio to 20 ratio.

First: CEQRQTQEGC (cysteine pairing not given here; also: displayed on phage, whole phage tested) [phage displaying CEQRQTQEGC (SEQ ID NO:93)]
Second: SDNRYIGSW (whole phage tested) [phage displaying SDNRYIGSW (SEQ ID NO:97)]
The “β3/BSA Ratio” value of the first is lower: 14 ratio for the first, 32 ratio for the second.

First: CARLEVLLPC (cysteine pairing not given here; also: displayed on phage, whole phage tested) [phage displaying CARLEVLLPC (SEQ ID NO:94)]
Second: CLRQSYSYNC (cysteine pairing not given here; also: displayed on phage, whole phage tested) [phage displaying CLRQSYSYNC (SEQ ID NO:104)]
The “β3/BSA Ratio” value of the first is higher: 18.7 ratio for the first, 3.2 ratio for the second.

Compared with SDWYYPWSW (whole phage tested; Selected on β3) [phage displaying SDWYYPWSW (SEQ ID NO:100)], YEWWYWSWA (whole phage tested) [phage displaying YEWWYWSWA (SEQ ID NO:98)] is lower in “β3/BSA Ratio” value: 157 ratio for the first, 28.1 ratio for the second.

Going from GLDTYRGSP (whole phage tested) [phage displaying GLDTYRGSP (SEQ ID NO:96)] to CFQNRC (cysteine pairing not given here; also: displayed on phage, whole phage tested) [phage displaying CFQNRC (SEQ ID NO:102)], the “β3/BSA Ratio” value falls from 48 ratio to 16 ratio.

With YDWWYPWSW (whole phage tested) [phage displaying YDWWYPWSW (SEQ ID NO:95)] the “β3/BSA Ratio” value was 163 ratio.

Biological target: T3, Aminopeptidase A (APA, EC 3.4.11.7) on SK-RC-49/APA cells (UniProt Q07075 1-957, limits assumed)
T3 construct: whole, on cells
T3 sequence (Q07075 whole entry): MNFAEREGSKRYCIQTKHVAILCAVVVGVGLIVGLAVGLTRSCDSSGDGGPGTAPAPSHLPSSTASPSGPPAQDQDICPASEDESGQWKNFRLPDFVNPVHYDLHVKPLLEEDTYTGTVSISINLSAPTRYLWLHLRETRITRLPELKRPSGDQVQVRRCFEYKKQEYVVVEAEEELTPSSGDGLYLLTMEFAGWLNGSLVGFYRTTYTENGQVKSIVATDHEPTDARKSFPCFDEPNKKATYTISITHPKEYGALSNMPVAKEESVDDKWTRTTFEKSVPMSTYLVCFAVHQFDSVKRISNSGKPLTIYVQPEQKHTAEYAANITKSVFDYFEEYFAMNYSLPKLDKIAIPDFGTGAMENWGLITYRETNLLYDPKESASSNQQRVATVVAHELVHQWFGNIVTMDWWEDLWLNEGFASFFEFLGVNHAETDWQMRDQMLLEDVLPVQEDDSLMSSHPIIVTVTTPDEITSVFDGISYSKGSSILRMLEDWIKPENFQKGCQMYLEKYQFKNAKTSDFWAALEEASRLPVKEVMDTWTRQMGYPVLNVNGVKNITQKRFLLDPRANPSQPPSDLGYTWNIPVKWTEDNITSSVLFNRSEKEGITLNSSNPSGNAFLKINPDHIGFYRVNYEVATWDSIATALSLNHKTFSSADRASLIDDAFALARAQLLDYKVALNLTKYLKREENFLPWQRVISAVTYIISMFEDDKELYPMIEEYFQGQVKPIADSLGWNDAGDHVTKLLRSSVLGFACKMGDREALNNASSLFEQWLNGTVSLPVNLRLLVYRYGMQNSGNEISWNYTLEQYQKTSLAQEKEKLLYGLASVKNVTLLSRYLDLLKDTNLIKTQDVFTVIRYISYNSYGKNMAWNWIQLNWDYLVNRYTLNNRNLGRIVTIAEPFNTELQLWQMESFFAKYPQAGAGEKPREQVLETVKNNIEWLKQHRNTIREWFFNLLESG
Test: phage binding to SK-RC-49/APA cells against SK-RC-49 parental cells

B1: no binding.
B2: no binding.
CGTGCAVECEVVC (whole phage tested) [phage displaying CGTGCAVECEVVC (SEQ ID NO:128)]: no binding.

Biological target: T2, GST-β3cyto (GST fusion protein of the …)
Test: phage binding, colonies from β3-GST wells / GST wells
From the text: as §1

Compared with CNLSSEQC (cysteine pairing not given here; also: displayed on phage, whole phage tested) [phage displaying CNLSSEQC (SEQ ID NO:103)], KVSWYLDNG (whole phage tested) [phage displaying KVSWYLDNG (SEQ ID NO:99)] is lower in “β3/GST Ratio” value: 2.7 ratio for the first, 2.1 ratio for the second.

Going from CEQRQTQEGC (cysteine pairing not given here; also: displayed on phage, whole phage tested) [phage displaying CEQRQTQEGC (SEQ ID NO:93)] to SDNRYIGSW (whole phage tested) [phage displaying SDNRYIGSW (SEQ ID NO:97)], the “β3/GST Ratio” value falls from 4.3 ratio to 3.3 ratio.

Going from CARLEVLLPC (cysteine pairing not given here; also: displayed on phage, whole phage tested) [phage displaying CARLEVLLPC (SEQ ID NO:94)] to CLRQSYSYNC (cysteine pairing not given here; also: displayed on phage, whole phage tested) [phage displaying CLRQSYSYNC (SEQ ID NO:104)], the “β3/GST Ratio” value falls from 2.8 ratio to 2.4 ratio.

Compared with SDWYYPWSW (whole phage tested; Selected on β3) [phage displaying SDWYYPWSW (SEQ ID NO:100)], YEWWYWSWA (whole phage tested) [phage displaying YEWWYWSWA (SEQ ID NO:98)] is higher in “β3/GST Ratio” value: 2.1 ratio for the first, 2.2 ratio for the second.

Compared with GLDTYRGSP (whole phage tested) [phage displaying GLDTYRGSP (SEQ ID NO:96)], CFQNRC (cysteine pairing not given here; also: displayed on phage, whole phage tested) [phage displaying CFQNRC (SEQ ID NO:102)] is lower in “β3/GST Ratio” value: 4.1 ratio for the first, 3.1 ratio for the second.

In the case of YDWWYPWSW (whole phage tested) [phage displaying YDWWYPWSW (SEQ ID NO:95)], the “β3/GST Ratio” value is reported as 5.6 ratio.

Biological target: T1, GST-β5cyto (GST fusion protein of the …)
Test: phage binding, colonies from β5-GST wells / BSA wells
From the text: as §1

Going from SDWYYPWSW (whole phage tested; Selected on β5) [phage displaying SDWYYPWSW (SEQ ID NO:113)] to DEEGYYMMR (whole phage tested) [phage displaying DEEGYYMMR (SEQ ID NO:110)], the “β5/BSA Ratio” value falls from 304 ratio to 29 ratio.

Compared with CWDQNYLDDC (whole phage tested) [phage displaying CWDQNYLDDC (SEQ ID NO:109)], CKEDGWLMTC (whole phage tested) [phage displaying CKEDGWLMTC (SEQ ID NO:107)] is higher in “β5/BSA Ratio” value: 100 ratio for the first, 836 ratio for the second.

Compared with KQFSYRYLL (whole phage tested) [phage displaying KQFSYRYLL (SEQ ID NO:111)], VVISYSMPD (whole phage tested) [phage displaying VVISYSMPD (SEQ ID NO:112)] is higher in “β5/BSA Ratio” value: 8 ratio for the first, 28 ratio for the second.

First: CYIWPDSGLC (cysteine pairing not given here; also: displayed on phage, whole phage tested) [phage displaying CYIWPDSGLC (SEQ ID NO:105)]
Second: CEPYWDGWFC (cysteine pairing not given here; also: displayed on phage, whole phage tested) [phage displaying CEPYWDGWFC (SEQ ID NO:106)]
The “β5/BSA Ratio” value of the first is lower: 193 ratio for the first, 400 ratio for the second.

Reference: patent US20040170955A1 (University of Texas, published 2004)
